Laboratory results: article PMC5333127, “RD26 mediates crosstalk between drought and brassinosteroid signalling pathways” (Nature Communications, 2017)

Tests used:
BES1;RD26 (ANAC072) [1] = target: T1, BES1;RD26 (ANAC072) (Arabidopsis thaliana;Arabidopsis …, UniProt Q9LN63;Q93VY3 1-335;1-297, |); test: EMSA; 25 mM HEPES-KOH pH 8.0, 1 mM DTT, 50 mM KCl, 10% glycerol, 20 μl, about 0.2 ng probe, 40 min on ice; 5% native PAGE in 1x TGE; details: protein: recombinant;recombinant; copies: 1;1; label: 32P 5' end; blunt
[2] = target: T2, MBP-BES1, full-length BES1 (BRI1 EMS SUPPRESSOR 1) (Arabidopsis, UniProt Q9LN63 1-335); test: pull-down; GST pull-down; GST-tagged RD26 (full length or 1-140) or GST as bait, MBP-tagged BES1 (full length or 1-89) as prey; MBP-BES1 detected by anti-MBP antibody; 20% input shown; details: both partners purified
T2 construct: BES1 (BRI1 EMS SUPPRESSOR 1), BES1/BZR1 family transcription factor of Arabidopsis, full length; also called BES1 FL; source: recombinant protein, purified; pETMALc-H
T2 sequence (looked up): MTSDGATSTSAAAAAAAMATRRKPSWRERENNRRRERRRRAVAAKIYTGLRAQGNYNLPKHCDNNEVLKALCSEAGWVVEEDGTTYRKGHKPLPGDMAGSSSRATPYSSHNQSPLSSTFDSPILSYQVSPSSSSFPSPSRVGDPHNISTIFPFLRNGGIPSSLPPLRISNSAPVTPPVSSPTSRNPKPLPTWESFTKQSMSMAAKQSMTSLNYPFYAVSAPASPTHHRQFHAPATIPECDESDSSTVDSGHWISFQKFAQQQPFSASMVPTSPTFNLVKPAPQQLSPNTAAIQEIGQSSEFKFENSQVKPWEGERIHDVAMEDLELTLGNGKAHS

[3] = target: T3, GST-tagged RD26 DNA-binding/dimerization domain (aa 1-140) (Arabidopsis, UniProt Q93VY3 1-140); test: as above; details: both partners purified
T3 construct: also called RD26 (1-140); source: recombinant protein, purified; pET-42a (Novagen)
T3 sequence (looked up): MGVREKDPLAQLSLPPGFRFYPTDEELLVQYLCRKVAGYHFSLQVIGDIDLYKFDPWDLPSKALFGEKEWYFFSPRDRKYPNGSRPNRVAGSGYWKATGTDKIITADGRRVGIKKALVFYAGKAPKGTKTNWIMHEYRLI

BES1 = BES1 (Arabidopsis thaliana, UniProt Q9LN63 1-335); test: EMSA; 25 mM HEPES-KOH pH 8.0, 1 mM DTT, 50 mM KCl, 10% glycerol, 20 μl, about 0.2 ng probe, 40 min on ice; 5% native PAGE in 1x TGE; details: protein: recombinant; chain copies: 2; label: 32P 5' end; blunt
BES1;RD26 (ANAC072) [4] = target: T1, BES1;RD26 (ANAC072); test: EMSA; stronger than either protein alone; proposed heterodimer; 25 mM HEPES-KOH pH 8.0, 1 mM DTT, 50 mM KCl, 10% glycerol, 20 μl, about 0.2 ng probe, 40 min on ice; 5% native PAGE in 1x TGE; details: protein: recombinant;recombinant; copies: 1;1; label: 32P 5' end; blunt
RD26 (ANAC072) = target: T4, RD26 (ANAC072) (Arabidopsis thaliana, UniProt Q93VY3 1-297); test: EMSA; 25 mM HEPES-KOH pH 8.0, 1 mM DTT, 50 mM KCl, 10% glycerol, 20 μl, about 0.2 ng probe, 40 min on ice; 5% native PAGE in 1x TGE; details: protein: recombinant; chain copies: 2; label: 32P 5' end; blunt
T4 sequence: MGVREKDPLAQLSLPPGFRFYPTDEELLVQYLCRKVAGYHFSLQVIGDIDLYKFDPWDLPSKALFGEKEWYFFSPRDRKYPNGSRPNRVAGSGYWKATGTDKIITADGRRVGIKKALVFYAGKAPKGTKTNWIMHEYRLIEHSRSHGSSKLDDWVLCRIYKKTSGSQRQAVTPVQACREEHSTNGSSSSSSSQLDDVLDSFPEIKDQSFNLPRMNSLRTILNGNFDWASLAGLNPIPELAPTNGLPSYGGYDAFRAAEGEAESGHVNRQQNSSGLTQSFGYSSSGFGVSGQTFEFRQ

BES1;RD26 (ANAC072) [5] = target: T1, BES1;RD26 (ANAC072); test: EMSA; synergistic; proposed heterodimer; 25 mM HEPES-KOH pH 8.0, 1 mM DTT, 50 mM KCl, 10% glycerol, 20 μl, about 0.2 ng probe, 40 min on ice; 5% native PAGE in 1x TGE; details: protein: recombinant;recombinant; copies: 1;1; label: 32P 5' end; blunt

B1: At4g00360 E-box MU (dsDNA)
DNA 1: ATTACCTAACTATAAAAAAATAATGTGTTC
DNA 2: GAACACATTATTTTTTTATAGTTAGGTAAT
B1: no binding (BES1;RD26 (ANAC072) [1]).

B2: GST-RD26, full-length RD26 (RESPONSIVE TO …ON 26) (natural protein, Arabidopsis, UniProt Q93VY3 1-297, looked up)
chain: MGVREKDPLAQLSLPPGFRFYPTDEELLVQYLCRKVAGYHFSLQVIGDIDLYKFDPWDLPSKALFGEKEWYFFSPRDRKYPNGSRPNRVAGSGYWKATGTDKIITADGRRVGIKKALVFYAGKAPKGTKTNWIMHEYRLIEHSRSHGSSKLDDWVLCRIYKKTSGSQRQAVTPVQACREEHSTNGSSSSSSSQLDDVLDSFPEIKDQSFNLPRMNSLRTILNGNFDWASLAGLNPIPELAPTNGLPSYGGYDAFRAAEGEAESGHVNRQQNSSGLTQSFGYSSSGFGVSGQTFEFRQ
notes: RD26 (ANAC072), NAC family transcription factor of Arabidopsis, full length; also called ANAC072; RD26 FL; source: recombinant protein, purified; pET-42a (Novagen)
B2: binds [2].

B3: MBP-tagged BES1 DNA-binding/dimerization domain (aa 1-89) (domain or fragment, Arabidopsis, UniProt Q9LN63 1-89, looked up)
chain: MTSDGATSTSAAAAAAAMATRRKPSWRERENNRRRERRRRAVAAKIYTGLRAQGNYNLPKHCDNNEVLKALCSEAGWVVEEDGTTYRKG
notes: also called BES1 (1-89); source: recombinant protein, purified; pETMALc-H
B3: binds [3].

B4: At4g18010 BRRE WT (dsDNA)
DNA 1: AAACCGAAAACACGTGTGAGAAAGAAGAAA
DNA 2: TTTCTTCTTTCTCACACGTGTTTTCGGTTT
B4: binds (BES1); binds (BES1;RD26 (ANAC072) [4]).

B5: At4g00360 E-box WT (dsDNA)
DNA 1: ATTACCTAACTATACATGTGTAATGTGTTC
DNA 2: GAACACATTACACATGTATAGTTAGGTAAT
B5: binds (BES1); binds (RD26 (ANAC072)); binds (BES1;RD26 (ANAC072) [5]).

B6: At4g18010 BRRE MU (dsDNA)
DNA 1: AAACCGAAAACATTTTTTAGAAAGAAGAAA
DNA 2: TTTCTTCTTTCTAAAAAATGTTTTCGGTTT
B6: no binding (BES1); no binding (BES1;RD26 (ANAC072) [1]); no binding (RD26 (ANAC072)).
